The target of the experiment is GLP-1R (Homo sapiens, UniProt P43220). Briefly: cAMP response element luciferase reporter gene assay in GLP-1R+ CHO-K1 cells. It counts as cell-based. The following applies: 1 μM of the ligand, Figure 3A. A general note: Reporter assays use an easily measured gene product as a stand-in for the process of interest.
GLP-1R, sequence (P43220 24-463): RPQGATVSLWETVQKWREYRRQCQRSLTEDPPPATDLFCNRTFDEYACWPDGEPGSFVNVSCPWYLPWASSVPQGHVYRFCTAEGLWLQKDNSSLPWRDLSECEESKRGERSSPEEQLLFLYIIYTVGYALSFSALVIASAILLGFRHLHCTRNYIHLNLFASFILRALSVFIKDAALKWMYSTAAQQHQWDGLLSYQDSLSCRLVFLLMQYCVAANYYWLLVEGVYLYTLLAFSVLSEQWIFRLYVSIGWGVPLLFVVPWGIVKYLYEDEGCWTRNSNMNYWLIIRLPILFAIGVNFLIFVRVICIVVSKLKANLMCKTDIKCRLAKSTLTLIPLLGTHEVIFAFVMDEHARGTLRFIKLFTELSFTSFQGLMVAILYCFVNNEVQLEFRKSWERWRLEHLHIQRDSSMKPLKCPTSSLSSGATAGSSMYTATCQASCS

Consider “exendin-4_9-39: exendin-4 fragment 9-39 used at 1 μM to inhibit GLP-1R activation”, for which the “inhibition of GLP-1 agonism at GLP-1R” value is “inhibited”.

(Values after PMC4006878 (Organic letters, 2013).)
